Laboratory results: PMC8460447 (Nature chemical biology, 2021)
One block for each binder: values may come before it.

Target: neddylated CUL5 (human, UniProt Q93034 1-780, Lys724 isopeptide-linked to NEDD8)
Test: cryo-EM structure

Sequence of neddylated CUL5 (Q93034 whole entry): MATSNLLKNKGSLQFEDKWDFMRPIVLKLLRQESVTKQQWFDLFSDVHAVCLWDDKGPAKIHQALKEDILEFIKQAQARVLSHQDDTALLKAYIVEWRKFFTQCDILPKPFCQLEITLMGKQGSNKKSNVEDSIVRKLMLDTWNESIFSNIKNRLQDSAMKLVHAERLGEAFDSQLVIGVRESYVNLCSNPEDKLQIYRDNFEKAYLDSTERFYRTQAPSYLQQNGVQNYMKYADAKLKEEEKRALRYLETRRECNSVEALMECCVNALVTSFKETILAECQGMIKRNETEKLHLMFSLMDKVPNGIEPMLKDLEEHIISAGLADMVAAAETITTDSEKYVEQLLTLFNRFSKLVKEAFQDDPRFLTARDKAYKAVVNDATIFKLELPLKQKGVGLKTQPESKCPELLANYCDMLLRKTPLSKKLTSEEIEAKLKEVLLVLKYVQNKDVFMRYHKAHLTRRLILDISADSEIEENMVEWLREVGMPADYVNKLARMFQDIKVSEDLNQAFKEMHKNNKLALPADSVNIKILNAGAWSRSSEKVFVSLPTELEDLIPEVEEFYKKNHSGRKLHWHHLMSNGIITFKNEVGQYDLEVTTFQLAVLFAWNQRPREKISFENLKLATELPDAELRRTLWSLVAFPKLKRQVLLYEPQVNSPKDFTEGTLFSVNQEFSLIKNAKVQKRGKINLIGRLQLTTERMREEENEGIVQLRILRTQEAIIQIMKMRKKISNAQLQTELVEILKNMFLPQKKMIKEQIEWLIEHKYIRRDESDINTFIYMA

binding result: binds
B1: RBX2 (natural protein)
chain: EDGEETCALASHSGSSGSKSGGDKMFSLKKWNAVAMWSWDVECDTCAICRVQVMDACLRCQAENKQEDCVVVWGECNHSFHNCCMSLWVKQNNRCPLCQQDWVVQRIGK

binding result: binds
B2: ARIH2* (full-length ARIH2 with L381A, E382A and E455A residue substitutions) (enzyme)
chain: MSVDMNSQGSDSNEEDYDPNCEEEEEEEEDDPGDIEDYYVGVASDVEQQGADAFDPEEYQFTCLTYKESEGALNEHMTSLASVLKVSHSVAKLILVNFHWQVSEILDRYKSNSAQLLVEARVQPNPSKHVPTSHPPHHCAVCMQFVRKENLLSLACQHQFCRSCWEQHCSVLVKDGVGVGVSCMAQDCPLRTPEDFVFPLLPNEELREKYRRYLFRDYVESHYQLQLCPGADCPMVIRVQEPRARRVQCNRCNEVFCFKCRQMYHAPTDCATIRKWLTKCADDSETANYISAHTKDCPKCNICIEKNGGCNHMQCSKCKHDFCWMCLGDWKTHGSEYYECSRYKENPDIVNQSQQAQAREALKKYLFYFERWENHNKSLQAAAQTYQRIHEKIQERVMNNLGTWIDWQYLQNAAKLLAKCRYTLQYTYPYAYYMESGPRKKLFEYQQAQLEAEIANLSWKVERADSYDRGDLENQMHIAEQRRRTLLKDFHDT
